Patent publication US20210277144A1 (SHANGHAI INSTITUTE OF BIOLOGICAL PRODUCTS, published 2021)
Positions count from the first letter of the chain named.

B1: 1044 human-mouse chimeric antibody (antibody, V domains shown)
VH: EVQLQQSGTELMKPGASVKISCKATGGTFSNYWIDWVKQRPGHGLEWIGEILPGSGGTDYNEKFKGKATFTADTSSNTAYMQLSSLTSEDSAVYYCARDDYDVFAYWGQGTLVTVSA
VL: DIVMTQAAFSNPVTLGTSASISCRSSKSLLHSNGITYLYWYLQKPGQSPQLLIYQMSNLASGVPDRFSSSGSGTDFTLRISRVEAEDVGVYYCAQNLELPWTFGGGTKLEIKR
B2: humanized antibody h1044-0 (antibody, V domains shown)
VH: QVQLVQSGAEVKKPGSSVKVSCKASGGTFSNYWIDWVRQAPGQGLEWMGEILPGSGGTDYNEKFKGRVTITADTSTSTAYMELSSLRSEDTAVYYCARDDYDVFAYWGQGTLVTVSS
VL: DIVMTQSPGTLSLSPGERATLSCRSSKSLLHSNGITYLYWYQQKPGQAPRLLIYQMSNLASGIPDRFSGSGSGTDFTLTISRLEPEDFAVYYCAQNLELPWTFGQGTKVEIKR
notes: also called humanized h1044-0 antibody after CDR transplantation
B3: humanized antibody with VH1 back mutation (antibody, V domains shown)
VH: B2 VH with Q1E
VL: B2 VL
B4: humanized antibody with VH25 back mutation (antibody, V domains shown)
VH: B2 VH with S25T
VL: B2 VL
B5: humanized antibody with VH76 back mutation (antibody, V domains shown)
VH: B2 VH with T76S
VL: B2 VL
B6: humanized antibody with VH77 back mutation (antibody, V domains shown)
VH: B2 VH with S77N
VL: B2 VL
B7: humanized antibody hu1044 (VL69, VH38 back mutation) (antibody, V domains shown)
VH: B2 VH with R38K
VL: B2 VL with G69S
notes: also called final humanized antibody hu1044
B8: humanized antibody hu1044-1 (VL69 back mutation) (antibody, human IgG1, V domains shown)
VH: B2 VH
VL: B2 VL with G69S
notes: h1044-0 with Gly to Ser at VL69
B9: humanized antibody hu1044-3 (VL69, VH48 back mutation) (antibody, human IgG1, V domains shown)
VH: B2 VH with M48I
VL: B2 VL with G69S
B10: humanized antibody hu1044-4 (VL69, VH68 back mutation) (antibody, human IgG1, V domains shown)
VH: B2 VH with V68A
VL: B2 VL with G69S
B11: humanized antibody hu1044-5 (VL63/69, VH38 back mutation) (antibody, human IgG1, V domains shown)
VH: B2 VH with R38K
VL: B2 VL with I63V, G69S
B12: humanized antibody hu1044-6 (VL63/69, VH68 back mutation) (antibody, human IgG1, V domains shown)
VH: B2 VH with V68A
VL: B2 VL with I63V, G69S
B13: humanized antibody hu1044-7 (VL63/69, VH67/68 back mutation) (antibody, human IgG1, V domains shown)
VH: B2 VH with R67K, V68A
VL: B2 VL with I63V, G69S

The binders below were run against T1, HER3 extracellular domain recombinant protein (human, UniProt P21860 20-643) (assay: SPR, ProteOn XPR36; antibody captured by goat anti-human antibody, HER3 extracellular domain 1.25-20 nM as analyte, Langmuir model).
T1 construct: extracellular domain; also called HER3 extracellular domain protein; HER3 protein
T1 sequence (P21860 20-643): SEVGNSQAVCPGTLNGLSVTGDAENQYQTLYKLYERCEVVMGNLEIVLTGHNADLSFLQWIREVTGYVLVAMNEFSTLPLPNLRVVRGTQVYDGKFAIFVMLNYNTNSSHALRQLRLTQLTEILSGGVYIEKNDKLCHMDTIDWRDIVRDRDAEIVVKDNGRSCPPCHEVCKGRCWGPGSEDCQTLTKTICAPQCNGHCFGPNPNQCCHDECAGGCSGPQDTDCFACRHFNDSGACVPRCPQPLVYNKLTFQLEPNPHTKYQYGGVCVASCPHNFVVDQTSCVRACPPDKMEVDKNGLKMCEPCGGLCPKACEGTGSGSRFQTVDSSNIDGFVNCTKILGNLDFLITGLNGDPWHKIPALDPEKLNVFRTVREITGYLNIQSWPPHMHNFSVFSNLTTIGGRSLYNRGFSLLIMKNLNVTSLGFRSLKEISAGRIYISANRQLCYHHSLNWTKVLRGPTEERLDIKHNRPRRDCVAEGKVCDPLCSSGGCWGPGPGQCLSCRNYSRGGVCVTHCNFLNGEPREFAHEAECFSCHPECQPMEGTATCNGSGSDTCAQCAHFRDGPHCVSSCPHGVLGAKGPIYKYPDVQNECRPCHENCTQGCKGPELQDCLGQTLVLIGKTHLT
Procedure: (§1) And the channels were turned to horizontal position, and Channels 1-5 were injected with 20 nM, 10 nM, 5 nM, 2.5 nM, 1.25 nM of samples of HER3 extracellular domain protein respectively, and Channel 6 was injected with buffer. 5 kinetic response curves were obtained, respectively representing the results of the reaction between different concentrations of antigen and the captured antibody. The Langmuir model was used to calculate the affinity constants KD (M) of each chimeric antibody and humanized antibody mutant.
With B1 the Kd was 262 pM, the koff was 0.000229 s⁻¹ and the kon was 874000 M⁻¹ s⁻¹.
B2 showed a Kd of 8480 pM, a koff of 0.00427 s⁻¹ and a kon of 503000 M⁻¹ s⁻¹.
B3 showed a Kd of 9140 pM, a koff of 0.00382 s⁻¹ and a kon of 418000 M⁻¹ s⁻¹.
With B4 the Kd was 6020 pM, the koff was 0.00317 s⁻¹ and the kon was 525000 M⁻¹ s⁻¹.
B5 was tested, and the Kd was 6490 pM, the koff was 0.00344 s⁻¹ and the kon was 531000 M⁻¹ s⁻¹.
B6 showed a Kd of 7070 pM, a koff of 0.00327 s⁻¹ and a kon of 463000 M⁻¹ s⁻¹.

What follows are binders tested against T1, HER3 extracellular domain recombinant … (assay: SPR, ProteOn XPR36; compared with the chimeric antibody).
Procedure: as §1
B2 was tested, and the “fold lower affinity than the chimeric antibody” value was about 32 fold.
With B7 the “fold of the affinity constant of the chimeric antibody” value (from here on “fold … of the chimeric antibody”) was at most 2 fold.
In the case of B8, the “fold difference in affinity from the chimeric antibody” value is reported as about 2 fold.
B9 was tested, and the “fold … of the chimeric antibody” value was at most 2 fold.
For B10, the “fold … of the chimeric antibody” value was at most 2 fold.

Molecular target: T1, HER3 extracellular domain recombinant …
Experiment: SPR, ProteOn XPR36; antibody captured by goat anti-human antibody, HER3 extracellular domain 1.25-20 nM as analyte, Langmuir model
Remark: another data set of the same source
Procedure: as §1
Work on B1 yielded a Kd of 278 pM, a koff of 0.000293 s⁻¹ and a kon of 1.05e+06 M⁻¹ s⁻¹.
B7 gave a Kd of 442 pM, a koff of 0.000386 s⁻¹ and a kon of 875000 M⁻¹ s⁻¹.
B8 was tested, and the Kd was 595 pM, the koff was 0.000502 s⁻¹ and the kon was 843000 M⁻¹ s⁻¹.
Binder B9 has a Kd of 554 pM, a koff of 0.000494 s⁻¹ and a kon of 882000 M⁻¹ s⁻¹.
For B10, the Kd was 461 pM, the koff was 0.000388 s⁻¹ and the kon was 841000 M⁻¹ s⁻¹.
Binder B11 has a Kd of 419 pM, a koff of 0.000353 s⁻¹ and a kon of 844000 M⁻¹ s⁻¹.
With B12 the Kd was 420 pM, the koff was 0.00038 s⁻¹ and the kon was 904000 M⁻¹ s⁻¹.
B13 showed a Kd of 375 pM, a koff of 0.000376 s⁻¹ and a kon of 1e+06 M⁻¹ s⁻¹.
